Laboratory results published in patent CN117327177A (dated 2024).

T1: Adiponectin (human, UniProt Q15848)
T1 chain: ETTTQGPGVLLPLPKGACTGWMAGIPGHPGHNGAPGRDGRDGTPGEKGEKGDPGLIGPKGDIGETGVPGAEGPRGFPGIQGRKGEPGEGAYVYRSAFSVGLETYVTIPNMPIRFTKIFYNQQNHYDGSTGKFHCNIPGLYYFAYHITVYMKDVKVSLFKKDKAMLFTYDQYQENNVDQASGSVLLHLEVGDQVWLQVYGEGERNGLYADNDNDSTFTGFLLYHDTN

B1: Anti-APN 6C2mut1 (antibody, V domains shown)
VH: EVQLQQSGPELVKPGASVKMSCKASGYSFTGYFINWVKQSHGKSLEWIGRINPYNGDTFYNEKFKGKATFTADISSSAAHMELLSLTSEDSAVYYCGRGGGLQRPYFDYWGQGTTLTVSP
VL: DIQMTQSSSYLSVSLGGRVTITCKASDHVNNWLAWYQQKPGNAPRLLISGATNLETGVPSRFSGSGSGKDYTLTITSVQTEDVATYYCQQYWISALTFGAGTKLELN

Key:
脂联素抗原(购自HYTEST，8AN7) [1] = molecular target: 脂联素抗原(购自HYTEST，8AN7) (UniProt Q15848); assay: indirect ELISA, adiponectin coated at 0.5 ug/ml, antibody at 0.39 ng/ml
脂联素抗原(购自HYTEST，8AN7) [2] = molecular target: 脂联素抗原(购自HYTEST，8AN7) (UniProt Q15848); assay: indirect ELISA, adiponectin coated at 0.5 ug/ml, antibody at 0.78 ng/ml
脂联素抗原(购自HYTEST，8AN7) [3] = molecular target: 脂联素抗原(购自HYTEST，8AN7) (UniProt Q15848); assay: indirect ELISA, adiponectin coated at 0.5 ug/ml, antibody at 1.56 ng/ml
脂联素抗原(购自HYTEST，8AN7) [4] = molecular target: 脂联素抗原(购自HYTEST，8AN7) (UniProt Q15848); assay: indirect ELISA, adiponectin coated at 0.5 ug/ml, antibody at 3.13 ng/ml
脂联素抗原(购自HYTEST，8AN7) [5] = molecular target: 脂联素抗原(购自HYTEST，8AN7) (UniProt Q15848); assay: indirect ELISA, adiponectin coated at 0.5 ug/ml, antibody at 6.25 ng/ml
脂联素抗原(购自HYTEST，8AN7) [6] = molecular target: 脂联素抗原(购自HYTEST，8AN7) (UniProt Q15848); assay: indirect ELISA, adiponectin coated at 0.5 ug/ml, antibody at 0 ng/ml (blank)
脂联素抗原(购自HYTEST，8AN7) [7] = molecular target: 脂联素抗原(购自HYTEST，8AN7) (UniProt Q15848); assay: BLI, antibody captured on AMC sensor, adiponectin antigen in gradient dilution in PBST
Adiponectin = molecular target: T1, Adiponectin; assay: BLI

OD450 (ref 630 nm) (脂联素抗原(购自HYTEST，8AN7) [1]) [OD]	OD450 (ref 630 nm) (脂联素抗原(购自HYTEST，8AN7) [2]) [OD]	OD450 (ref 630 nm) (脂联素抗原(购自HYTEST，8AN7) [3]) [OD]	OD450 (ref 630 nm) (脂联素抗原(购自HYTEST，8AN7) [4]) [OD]	OD450 (ref 630 nm) (脂联素抗原(购自HYTEST，8AN7) [5]) [OD]	OD450 (ref 630 nm) (脂联素抗原(购自HYTEST，8AN7) [6]) [OD]	Kd (脂联素抗原(购自HYTEST，8AN7) [7]) [µM]	koff (脂联素抗原(购自HYTEST，8AN7) [7]) [s⁻¹]	kon (脂联素抗原(购自HYTEST，8AN7) [7]) [M⁻¹ s⁻¹]	Kd (Adiponectin) [µM]	Molecule
0.261	0.451	0.802	1.43	1.8	0.055	0.0871	0.00923	106000		对照 (antibody)
1.02	1.79	2.06	2.26	2.33	0.074		0.00209	5.58e+06	0.000374	B1
